Blank lines part the entries; values can stand above or below the binder they belong to.
B3: Alexa647-labeled RhoGDI1 L56G (natural protein, bovine, UniProt P19803 1-204, looked up)
chain: MAEQEPTAEQLAQIAAENEEDEHSVNYKPPAQKSIQEIQELDKDDESLRKYKEALGGRVAVSADPNVPNVVVTRLTLVCSTAPGPLELDLTGDLESFKKQSFVLKEGVEYRIKISFRVNREIVSGMKYIQHTYRKGVKIDKTDYMVGSYGPRAEEYEFLTPMEEAPKGMLARGSYNIKSRFTDDDRTDHLSWEWNLTIKKEWKD
modifications: Alexa647 acceptor (site not stated)

Tests used:
[1] = target: Cdc42, homogeneously geranylgeranylated in vitro (UniProt P60953 1-191, geranylgeranylated in vitro (residue not stated)); assay: cell-based or functional assay
[2] = target: B3; assay: FRET or BRET; dissociation assay: 80 nM dual-labeled complex (Alexa647 on RhoGDI1, Cy3 on Cdc42) mixed with excess (5 μM) unlabeled GDI; mono-exponential fits; KD calculated from the measured dissociation rate constant and the association rate constant measured for wt (assumed for the mutants); settings: both partners purified
[3] = target: T1, Alexa647-labeled RhoGDI1 (wt) (bovine, UniProt P19803 1-204, Alexa647 acceptor (site not stated)); assay: as above; settings: both partners purified
T1 construct: also called wildtype GDI; wt RhoGDI
T1 sequence (looked up): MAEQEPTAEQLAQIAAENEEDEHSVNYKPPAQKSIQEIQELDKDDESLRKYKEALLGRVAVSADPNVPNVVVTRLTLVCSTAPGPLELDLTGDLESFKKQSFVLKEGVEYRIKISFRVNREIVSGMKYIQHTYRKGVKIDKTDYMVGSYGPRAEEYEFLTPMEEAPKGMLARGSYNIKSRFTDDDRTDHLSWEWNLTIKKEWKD

[4] = target: T1, Alexa647-labeled RhoGDI1 (wt); assay: not stated; association rate constant determined independently for wildtype GDI (Figure S17); settings: both partners purified

Chain of Cdc42, homogeneously geranylgeranylated in vitro (P60953 whole entry): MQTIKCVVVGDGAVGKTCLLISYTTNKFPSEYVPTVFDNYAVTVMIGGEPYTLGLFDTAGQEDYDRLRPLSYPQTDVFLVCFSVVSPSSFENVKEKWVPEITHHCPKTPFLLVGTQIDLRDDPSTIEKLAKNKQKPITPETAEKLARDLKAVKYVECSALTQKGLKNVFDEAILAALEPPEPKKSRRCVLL

- inhibition of EDTA-induced Mant-GDP dissociation from prenylated Cdc42 with saturating (5 μM) RhoGDI, against free Cdc42 [1]: 83 fold
B1: full-length RhoGDI1 (residues 1 to 204), bovine (natural protein, UniProt P19803 1-204, looked up)
chain: MAEQEPTAEQLAQIAAENEEDEHSVNYKPPAQKSIQEIQELDKDDESLRKYKEALLGRVAVSADPNVPNVVVTRLTLVCSTAPGPLELDLTGDLESFKKQSFVLKEGVEYRIKISFRVNREIVSGMKYIQHTYRKGVKIDKTDYMVGSYGPRAEEYEFLTPMEEAPKGMLARGSYNIKSRFTDDDRTDHLSWEWNLTIKKEWKD
modifications: triply labeled (2H, 13C, 15N) in the NMR samples

- Kd [2]: 4 nM
- koff [2]: 0.2 s⁻¹
- Kd [3]: 0.09 nM
- koff [3]: 0.0004 s⁻¹
- kon [4]: 5e+06 M⁻¹ s⁻¹
B2: Cy3-labeled, prenylated Cdc42 (natural protein)
chain: not shown
modifications: prenylated (residue not stated); Cy3 donor (site not stated)
notes: Cdc42, Rho family small GTPase

Binder: B3
- acceleration of Mant-GDP dissociation from prenylated Cdc42 with 5 μM RhoGDI L56G, against wt RhoGDI [1]: 5 fold

Reference: PMC7616425, “Transient Structural Properties of the Rho GDP-Dissociation Inhibitor” (Angewandte Chemie (International ed. in English), 2024)
